Measured values from US20260008856A1, “METHODS OF TREATING DISEASE USING ANTI-IL1RAP ANTIBODIES AND ANTIBODY DRUG CONJUGATES” (Bluefin Biomedicine, Inc., priority 2022, published 2026).

What was measured:
[1] = test system: TARC expression in PBMCs stimulated with HDM and IL-4; assay: TARC in PBMCs treated by HDM and hIL-4; assay type: cell-based, human
Experimental: 0.2 million PBMCs in 100 ul medium (RPMI1640, 10% heat-inactivated FBS) were added to each well of 96 well cell culture plate. BFB759 at multiple concentrations in 50 ul medium was added to the wells. The cells were incubated in the incubator for 45 min. Then, 50 ul HDM solution (final concentration 10 ug/ml) was added to the wells. After 7 days incubation, the supernatant was transferred to a new 96 well plate, and used in TARC ELISA right away, or frozen in −80 C freezer for ELISA later. For the combination studies of BFB759 with other drugs, the single agent or combination of drugs were added to the PBMCs, incubated for 45 min, then HDM solution, or HDM and IL-4 or IL-13 solution were added to the wells. The assay was incubated for 7 days, and the supernatant was harvested for TARC ELISA.
Dupilumab is approved for treatment of AD (Atopic Dermatitis). It inhibits IL-4/13 signaling by blocking their binding to IL-4Ra. […] (FIG. 15)
In the data shown in FIG. 15, HDM was used at 10 ug/ml, IL-4 was used at […], antibodies were at three different concentrations as shown in the graph. Data shown are mean±s.d.

[2] = test system: H69; assay: Flow cytometry binding to endogenous cell line H69; assay type: cell-based; parameters: key: (−): No binding; (+): Weak binding; (++): Moderate binding; (+++): Strong binding; conditions: primary antibody 1 ug/ml
Experimental: Staining for flow cytometry was performed in 1× cold PBS with 0.5% BSA. Primary antibodies (1 ug/ml) were incubated with live cells on ice for 30 minutes, after a brief wash, cells were incubated with Alexa Fluro® 488-conjugated anti-human IgG secondary antibody @1:1000 (709-546-149, Jackson ImmunoResearch). Acquisition of the data was performed on a MACSQuant® Flow Cytometers (Miltenyi Biotec) and analyzed with FlowJo software.

[3] = test system: IL-1β signaling; assay: IL-1 signaling reporter cell assay (HEK-Blue IL-1β cells), IL-1β; assay type: cell-based
Experimental: (§1) HEK-Blue IL-1β cells (Invivogen, CA) were harvested and plated in technical duplicates at a density of 50,000 cells per well in a 96-well plate. IL1RAP antibodies, or a corresponding human IgG1 control antibody was added to the wells in a concentration range of […]. After incubating cells with antibodies for 30 minutes, IL-1β was added to a final concentration of 0.5 ng/ml, and the plate was incubated overnight. To examine whether any of the antibodies were able to induce IL-1R activation in the absence of IL-1β, samples were incubated with 10 μg/mL antibody without addition of the ligand. The following day, substrate was added to the supernatants, and samples were analyzed for absorbance at 620 nm.

[4] = test system: normal human dermal fibroblasts (NHDF); assay: IL-6 and IL-8 production in NHDF stimulated with cytokine combo incl. TNF-α; assay type: cell-based; conditions: cytokine combo IL-1α/β, IL-36α/β/γ, antibodies 0-20 ug/ml, BFB759 0.5 ug/ml in combination
Experimental: Human NHDF cells were plated on 96-well, flat-bottom plates at 4,000 cells/well. […] For combination therapy, 0.5 ug/ml BFB759 was mixed with adalimumab or isotype control antibody at increasing concentrations (0-20 ug/ml, 5-fold dilution) and incubated with cells in duplicate for 45 minutes, prior to the addition of cytokine combo. The plates were then incubated overnight at 37° C., 5% CO2. 24 hours after treatment, supernatants were transferred and assayed for IL-6 and IL-8, as per manufacture's protocol (R&D Systems; Human IL-6 DuoSet ELISA, Human IL-8/CXCL8 DuoSet ELISA). The raw assay data were analyzed using GraphPad Prism 9 software to perform a non-linear regression.

[5] = test system: EOL-1; assay: Flow cytometry binding to endogenous cell line EOL-1; assay type: cell-based, human; parameters: key to binding to EOL-1 by flow cytometry: (−): No binding; (+): Weak binding; (++): Moderate binding; (+++): Strong binding; conditions: primary antibody 1 ug/ml
How it was run: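 Live cells stained on ice for 30 minutes with primary antibody at 1 ug/ml in cold PBS/0.5% BSA, then washed and detected with Alexa Fluor 488 anti-human IgG (1:1000). Binding read by flow cytometry on endogenous IL1RAP-positive lines.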

[6] = test system: IL-33 signaling; assay: IL-33 signaling reporter cell assay (HEK-Blue IL-33 cells); assay type: cell-based; conditions: antibody 1-10 μg/ml, IL-33 0.5 ng/ml
Experimental: FIGS. 7A and 7B show blockage of IL-33 signaling by anti-IL1RAP antibodies. HEK-Blue IL-33 cells (Invivogen, CA) were harvested and plated in technical duplicates at a density of 50,000 cells per well in a 96-well plate. Antibodies, or a corresponding human IgG1 control antibody, was added to the wells in a serial dilution starting at 10 μg/ml (FIG. 7A), or a concentration of 1 and 10 μg/ml (FIG. 7B). After incubating cells with antibodies for 30 minutes, IL-33 was added to a final concentration of 0.5 ng/ml, and the plate was incubated overnight. 24 hours later, substrate was added to the supernatants, and samples were analyzed for absorbance at 620 nm. CBIgG1 (anti-hen egg lysozyme antibody, CrownBio™) was included as a negative control.
as §1, with “IL-33” for “IL-1β”, “plate.” for “plate. IL1RAP”, “ST2” for “IL-1R”, “IL-33,” for “IL-1β,”

B1: 37E10_15B5: human anti-IL1RAP antibody BFB759 (i.e., 37E10_15B5), VH SEQ ID NO: 64, VL SEQ ID NO: 68 (antibody, V domains shown)
VH: QVQLVESGGGVVQPGRSLRLSCAASGFTFRSHGMHWVRQAPGKGLEWVAVIWYDGSSEYYADSVKGRFTISRDNSKNTLYLQMNSLRAEDTAVYYCARENVYGSGWFFDYWGQGTLVTVSS
VL: EIVMTQSPATLSVSPGERASLSCRASQSVGSNLAWYQQRPGQAPRLLIFGASTRATGIPARFSGSRSGTEFTLTISSLQSEDFALYYCQQYNNWPPWTFGQGTKLEIK
inhibition of TARC expression in the HDM and IL-4 model ([1]; 1 or 0.1 ug/ml of BFB759, alone or combined with dupilumab): minimal inhibition | inhibition of TARC expression in the HDM and IL-4 model ([1]; HDM 10 ug/ml, IL-4 750 ug/ml, three antibody concentrations): partially inhibits | binding to H69 by flow cytometry [2]: (−) | inhibition of IL1R1 / IL-1 signaling ([3]; HEK-Blue IL-1β cells, antibody 1-10 pg/ml, IL-1β 0.5 ng/ml): potent inhibition | EC50 against IL-1β ([3]; serial dilution of antibody, reporter assay): subnanomolar | IL-6 production [4]: dose-dependent decrease | IL-8 production [4]: dose-dependent decrease | binding to EOL-1 by flow cytometry [5]: (+++) | inhibition of IL-33 signaling [6]: partially inhibit
